Patent US10906951B2, “Modified natural killer cells and natural killer cell lines having increased cytotoxicity” (ONK THERAPEUTICS LIMITED, priority 2015, dated 2021)
Substitutions are numbered along the chain they refer to. Names and notes keep the numbering of the source. Like-named read-outs stand apart in the source and are kept apart here.

B1: TRAIL variant (D269H/E195R): TRAIL variant of WO 2009/077857, encoded by the wildtype TRAIL gene containing the D269H/E195R mutation (protein)
chain: MAMMEVQGGPSLGQTCVLIVIFTVLLQSLCVAVTYVYFTNELKQMQDKYSKSGIACFLKEDDSYWDPNDEESMNSPCWQVKWQLRQLVRKMILRTSEETISTVQEKQQNISPLVRERGPQRVAAHITGTRGRSNTLSSPNSKNEKALGRKINSWESSRSGHSFLSNLHLRNGELVIHEKGFYYIYSQTYFRFQERIKENTKNDKQMVQYIYKYTSYPDPILLMKSARNSCWSKDAEYGLYSIYQGGIFELKENDRIFVSVTNEHLIDMHHEASFFGAFLVG
B2: Y240A: TRAIL DR5 variant, WO 01/00832 (protein, UniProt P50591 1-281, looked up, variant Y240A)
Tumor necrosis factor ligand …: B1 chain with R195E, Y240A, H269D
B3: H270D: TRAIL DcR variant, Leary 2016 (protein, UniProt P50591 1-281, looked up, variant H270D)
Tumor necrosis factor ligand …: B1 chain with R195E, H269D, H270D
B4: N199V: TRAIL variant, MacFarlane 2005 (protein, UniProt P50591 1-281, looked up, variant N199V)
Tumor necrosis factor ligand …: B1 chain with R195E, N199V, H269D
B5: T214R: TRAIL variant, Van der Sloot 2006 (protein, UniProt P50591 1-281, looked up, variant T214R)
Tumor necrosis factor ligand …: B1 chain with R195E, T214R, H269D
B6: T261L/G160E: TRAIL DcR variant, Leary 2016 (protein, UniProt P50591 1-281, looked up, variant T261L G160E)
Tumor necrosis factor ligand …: B1 chain with G160E, R195E, T261L, H269D
B7: T214R/E195R: TRAIL variant, Van der Sloot 2006 (protein, UniProt P50591 1-281, looked up, variant T214R E195R)
Tumor necrosis factor ligand …: B1 chain with T214R, H269D
B8: E195R: TRAIL variant, Van der Sloot 2006 (protein, UniProt P50591 1-281, looked up, variant E195R)
Tumor necrosis factor ligand …: B1 chain with H269D
B9: Y189A/Q193S/N199V/K201R/Y213W/S215D: TRAIL variant, MacFarlane 2005 (protein, UniProt P50591 1-281, looked up, variant Y189A Q193S N199V K201R Y213W S215D)
Tumor necrosis factor ligand …: B1 chain with Y189A, Q193S, R195E, N199V, K201R, Y213W, S215D, H269D
B10: D218A: TRAIL DcR variant, WO 01/00832 (protein, UniProt P50591 1-281, looked up, variant D218A)
Tumor necrosis factor ligand …: B1 chain with R195E, D218A, H269D
B11: T261L/G160E/H270D/T200H: TRAIL DcR variant, Leary 2016 (protein, UniProt P50591 1-281, looked up, variant T261L G160E H270D T200H)
Tumor necrosis factor ligand …: B1 chain with G160E, R195E, T200H, T261L, H269D, H270D
B12: Y213W/S215D: TRAIL variant, MacFarlane 2005 (protein, UniProt P50591 1-281, looked up, variant Y213W S215D)
Tumor necrosis factor ligand …: B1 chain with R195E, Y213W, S215D, H269D
B13: T261L/H270D: TRAIL DcR variant, Leary 2016 (protein, UniProt P50591 1-281, looked up, variant T261L H270D)
Tumor necrosis factor ligand …: B1 chain with R195E, T261L, H269D, H270D
B14: T261L: TRAIL DcR variant, Leary 2016 (protein, UniProt P50591 1-281, looked up, variant T261L)
Tumor necrosis factor ligand …: B1 chain with R195E, T261L, H269D
B15: T214R/D269H: TRAIL variant, Van der Sloot 2006 (protein, UniProt P50591 1-281, looked up, variant T214R D269H)
Tumor necrosis factor ligand …: B1 chain with R195E, T214R
B16: T261L/G160E/H270D: TRAIL DcR variant, Leary 2016 (protein, UniProt P50591 1-281, looked up, variant T261L G160E H270D)
Tumor necrosis factor ligand …: B1 chain with G160E, R195E, T261L, H269D, H270D
B17: T200H: TRAIL DcR variant, Leary 2016 (protein, UniProt P50591 1-281, looked up, variant T200H)
Tumor necrosis factor ligand …: B1 chain with R195E, T200H, H269D
B18: D269A: TRAIL DR5 variant, WO 01/00832 (protein, UniProt P50591 1-281, looked up, variant D269A)
Tumor necrosis factor ligand …: B1 chain with R195E, H269A

Tests used:
DR5 [1] = conditions: low dose, 24 hours, FIG. 18
Experimental: Bortezomib was bought from Millennium Pharmaceuticals. Mouse anti-human DR5-AF647 (catalog number: 565498) was bought from BD Pharmingen. The stained cell samples were analyzed on BD FACS Canto II. (1) MM cell lines RPM18226 and MM1.S were grown in RPM11640 medium (Sigma, St Louis, Mo., USA) supplemented with 2 mM L-glutamine, 10 mM HEPES, 24 mM sodium bicarbonate, 0.01% of antibiotics and 10% fetal bovine serum (Sigma, St Louis, Mo., USA), in 5% CO2 atmosphere at 37° C. (2) MM cells were seeded in 6-well plates at 1×10^6/mL, 2 mL/well. (3) MM cells were then treated with different doses of Bortezomib for 24 hours. (4) DR5 expression in Bortezomib treated/untreated MM cells was then analyzed by flow cytometry (FIG. 18).

MM cells = tested on: MM cells
Experimental: (1) MM cell lines RPM18226 and MM1.S were grown in RPM11640 medium (Sigma, St Louis, Mo., USA) supplemented with 2 mM L-glutamine, 10 mM HEPES, 24 mM sodium bicarbonate, 0.01% of antibiotics and 10% fetal bovine serum (Sigma, St Louis, Mo., USA), in 5% CO2 atmosphere at 37° C.
(2) MM cells were seeded in 6-well plates at 1×10^6/mL, 2 mL/well.
(3) MM cells were then treated with different doses of Bortezomib for 24 hours.

MM1.S cells = test: Bortezomib-induced sensitization of MM1.S cells to KHYG-1 cells expressing TRAIL variant; assay type: cell-based; conditions: MM1.S pretreated with 2.5 nM for 24 hours, 1:1 co-culture 12 hours, FIG. 19
Experimental: KHYG-1 cells were transfected with the TRAIL variant (TRAIL D269H/E195R), as described above in Example 6.
(1) Bortezomib treated/untreated MM1.S cells were used as target cells. MM1.S cells were treated with 2.5 nM of Bortzeomib or vehicle (control) for 24 hours.
(2) 6 hours after electroporation of TRAIL variant mRNA, KHYG-1 cells were then cultured with MM cells in 12-well plate. After washing, cell concentrations were adjusted to 1×10^6/mL, before mixing KHYG-1 and MM1.S cells at 1:1 ratio to culture for 12 hours.
(3) Flow cytometric analysis of the cytotoxicity of KHYG-1 cells was carried out. The co-cultured cells were collected, washed and then stained with CD2-APC antibody (5 uL/test), AnnexinV-FITC (5 uL/test) and SYTOX-Green (5 uL/test) using AnnexinV binding buffer.
(4) Data were further analyzed using FlowJo 7.6.2 software. CD2-negative population represents MM1.S cells. KHYG-1 cells are strongly positive for CD2. Finally, the AnnexinV-FITC and SYTOX-Green positive cells in the CD2-negative population were analyzed.
Flow cytometric analysis of apoptosis was performed in Bortezomib-pretreated/untreated MM1.S cells co-cultured with KHYG-1 cells electroporated with/without TRAIL variant (FIG. 19).

CTLA4 gene = test: gRNA cleavage activity, T7E1 mismatch detection assay in K562 cells, CTLA4; assay type: cell-based, human; conditions: CRISPR/Cas9, T7E1 mismatch assay, FIG. 5
Description: (§1) Two gRNA candidates were selected for each target gene and their cleavage efficacies in K562 cells determined. The sequences of the gRNA candidates are shown in Table 1 and the Protospacer Adjacent Motif (PAM) relates to the last 3 bases of the sequence. The flanking regions of the gRNA sequences on the LIR2 gene (SEQ ID NO: 1) and the CTLA4 gene (SEQ ID NO: 7) are shown in FIGS. 1 and 2, respectively.
(§2) K562 cells were transfected with the prepared gRNA constructs (FIG. 3) and subsequently harvested for PCR amplification. The presence of GFP expression was used to report successful incorporation of the gRNA construct into the K562 cells. This confirmed expression of the Cas9 gene and therefore the ability to knock out expression of the LIR2 and CTLA4 genes.
(§3) The cleavage activity of the gRNA constructs was determined using an in vitro mismatch detection assay. T7E1 endonuclease I recognises and cleaves non-perfectly matched DNA, allowing the parental LIR2 and CTLA4 genes to be compared to the mutated genes following CRISPR/Cas9 transfection and non-homologous end joining (NHEJ).

LIR2 gene = test: gRNA cleavage activity, T7E1 mismatch detection assay in K562 cells, LIR2; assay type: cell-based, human; conditions: CRISPR/Cas9, T7E1 mismatch assay, FIG. 4
Description: as §1, §2, §3

[2] = tested on: TRAIL decoy receptors (DcR1 and DcR2); conditions: in words; known from WO 2009/077857, Leary 2016, WO 01/00832; cited from earlier work
DR5 [3] = biological target: DR5 (Homo sapiens, UniProt O14763); conditions: in words; known from WO 2009/077857, Van der Sloot 2006, MacFarlane 2005, WO 01/00832; cited from earlier work

Molecule	affinity for TRAIL decoy receptors [2]	affinity for DR5 (DR5 [3])	further results
CC(C)C[C@H](NC(=O)[C@H](Cc1ccccc1)NC(=O)c1cnccn1)B(O)O [Bortezomib]			DR5 expression (DR5 [1]; MM1.S cells): increase DR5 expression; DR5 expression (DR5 [1]; RPMI8226 cells): increase DR5 expression; toxicity at high doses (MM cells; high doses): high toxicity resulting in most of the MM cells dying; induction of apoptosis associated with DR5 upregulation (MM cells; low dose, data not shown): minor induction of apoptosis; sensitivity of MM cells to KHYG-1 cells expressing the TRAIL variant (MM1.S cells): induced sensitivity of MM cells
g7 gRNA: CTLA4 g7 gRNA sequence CACTCACCTTTGCAGAAGACAGG (expressed or natural sequence; listed as Homo sapiens)			gRNA cleavage efficiency (CTLA4 knockout) (CTLA4 gene): 32%
g9 gRNA: LIR2 g9 gRNA sequence GAGTCACAGGTGGCATTTGGCGG (expressed or natural sequence; listed as Homo sapiens)			gRNA cleavage efficiency (LIR2 knockout) (LIR2 gene): 11%
g15 gRNA: CTLA4 g15 gRNA sequence CCTTGTGCCGCTGAAATCCAAGG (expressed or natural sequence; listed as Homo sapiens)			gRNA cleavage efficiency (CTLA4 knockout) (CTLA4 gene): 26%
g18 gRNA: LIR2 g18 gRNA sequence CGAATCGCAGGTGGTCGCACAGG (expressed or natural sequence; listed as Homo sapiens)			gRNA cleavage efficiency (LIR2 knockout) (LIR2 gene): 10%
B1	reducing the affinity	significantly increases the affinity	
B2		DR5 variants	
B3	decreased affinity for TRAIL decoy receptors		
B4		increased affinity for DR5	
B5		increased affinity for DR5	
B6	decreased affinity for TRAIL decoy receptors		
B7		increased affinity for DR5	
B8		increased affinity for DR5	
B9		increased affinity for DR5	
B10	DcR variants		
B11	decreased affinity for TRAIL decoy receptors		
B12		increased affinity for DR5	
B13	decreased affinity for TRAIL decoy receptors		
B14	decreased affinity for TRAIL decoy receptors		
B15		increased affinity for DR5	
B16	decreased affinity for TRAIL decoy receptors		
B17	decreased affinity for TRAIL decoy receptors		
B18		DR5 variants	
